Tested on: MSRV-Env induced EAE in C57BL/6 mice
Assay: Rotarod test, Example 3.A (MSRV-Env induced EAE)
Type: in vivo
Conditions: Example 3.A doses
Procedure: 9 and 8 days before immunization. Transfer of mice, in their home cages, from the holding room to the experimental room. Mice are habituated to the experimental room for 15 min. During the training period, each mouse was placed on the rotarod at a constant speed (4 rpm) if one mouse was falling, she was back on rotarod, when mice were comfortable on the rotarod, mice were running during 120 sec. All mice were returned to their cage, the speed was increased to 13 rpm and mice were again put on the rotarod for 120 sec. All mice were returned to their cage, the speed was increased to 19 rpm and mice were again put on the rotarod for 120 sec. The experimental-room environment were kept constant between test sessions with respect to temperature, and light intensity.
1 day before each immunization, mice were transferred in their home cages, from the holding room to the experimental room. Mice were habituated to the experimental room for 15 min. Mice then received two trials at 10 increasing speed levels, ranging from 7 to 40 rpm. Individual delays before falling off the rotarod (for the two trials at each speed level) was recorded until 60 sec. Thus, training and performance on the Rotarod system were determined for each animal.
The ROTAROD test results are expressed as kinetics of the mean of individual scores for each group with SEM indicated by bars, for each test day and for each test speed within the discriminating range for neuromotor impairment in present conditions (16 to 29 rpm).
They are calculated for each individual mouse, for each test day and for each speed value, as the relative gain or loss of time on Rotarod (before falling), compared to the first test day at the same speed (D-7, before starting the disease induction in relevant groups). The value is calculated as “Time on Rotarod at dayX”−“Time at Day-7 for the same mouse at the same speed”. Figures illustrate the kinetics for the different groups on the whole study period, for representative discriminative speed values when validated to differentiate ill from healthy animals in our conditions (e.g., too high or too low speed values either made healthy ones fall immediately or ill ones capable to sustain a slow movement).
All groups of 6 (six) mice have been first injected s.c. in the neck on day 0 then in the dorsal flanks on day 7 and 14; with 200 μg of MOG/mouse+60 μg of MSRV-Env+IFA.
For Groups G to H, the treatments with GNbAc1, L-NAME, SMT and DMF alone or together with GNbAc1 with the doses indicated below, have been initiated on day 12 post immunization when the progression of EAE clinical symptoms was already observed. GNbAc1 humanized antibody was administered once, but L-Name or SMT was administered every 4 days until termination of the study on day 29. Regarding Groups E and H, attributed for the treatment with DMF, we have previously determined the volume of daily water consumption by each mouse and it has been determined that (in our condition), each mouse consumed around 3.5 ml drinking water per day. Thus, on the basis of this measurement, a dose of 1 mg DMF+0.08% Methocel per mouse were added to 3.5 ml drinking water daily.

B1: GNbAC1: recombinant humanized anti-Env IgG4 monoclonal antibody comprising the CDRs of SEQ ID No. 1 to 6 (antibody, chains of the INN, looked up, V domains shown)
VH: QVQLVQSGAEVKKPGSSVKVSCKASGYTFTDYEMHWVRQAPGQGLEWIGAVAPETGGTAYNQKFKGRATITADKSTSTAYMELSSLRSEDTAVYYCTSTVVPFAYWGQGTLVTVSS
VL: QIQLTQSPSSLSASVGDRVTITCSASSSVSYMYWYQQKPGKAPKAWIYRTSNLASGVPSRFSGSGSGTDYTLTISSLQPEDFATYYCQQYQSLPLTFGGGTKVEIK
Rotarod scores in all conditions (16 to 29 rpm tests) (compared to untreated group A / to GNbAc1 alone): greatly stabilized and/or improved scores
Time on Rotarod at 23 rpm relative to Day -7 (end of study period): recovered a score similar to control mice without disease induction
Time on Rotarod at 26 rpm relative to Day -7 (end of study period): recovered a score similar to D,G,C,E and H groups
Time on Rotarod at 29 rpm relative to Day -7 (end of study period): recovered a score similar to control mice without disease induction

Source: patent US10752675B2, “Compounds for treating the remyelination blockade in diseases associated with the expression of HERV-W envelope protein” (GENEURO S.A., priority 2012, dated 2020)
